The assay addresses human CC-chemokine receptor 2 (CCR2), endogenous on THP-1 cells, PBMC and whole blood cells (human) (UniProt P41597). The assay can be described thus: cell-based or functional assay.
Chain of UniProt P41597 (P41597 whole entry): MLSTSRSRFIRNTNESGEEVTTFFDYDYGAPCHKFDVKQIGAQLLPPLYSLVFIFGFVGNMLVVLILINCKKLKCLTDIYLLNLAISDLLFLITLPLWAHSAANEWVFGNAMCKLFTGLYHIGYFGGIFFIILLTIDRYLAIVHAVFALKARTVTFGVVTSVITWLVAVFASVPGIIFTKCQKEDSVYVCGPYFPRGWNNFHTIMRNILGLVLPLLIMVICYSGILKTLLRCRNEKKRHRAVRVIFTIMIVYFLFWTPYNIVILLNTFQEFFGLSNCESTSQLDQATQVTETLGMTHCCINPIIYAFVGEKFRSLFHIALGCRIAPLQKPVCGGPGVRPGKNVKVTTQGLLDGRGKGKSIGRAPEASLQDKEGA

Substance murine monoclonal antibody LS132.1D9 registered an MCP-1-induced chemotaxis of fresh PBMC of 10 µg/mL.
